Laboratory results taken from patent US20210244857A1, “PEPTIDE-COATED CALCIUM PHOSPHATE PARTICLES” (Cerapedics, Inc., priority 2016, published 2021).
Ends that are not written are not given here.

What was measured:
[1] = P-15 bound to ABM particles after pretreatment, coating and washing (ELISA), effect of osmolarity; format: physicochemical, Bovine; conditions: Hepes buffer pH 7.2
Protocol: (§1) ABM particles were incubated in a buffered solution that contained varying amounts of NaCl to modulate the final osmolarity. The ABM particles were incubated in the solutions for 18-24 hours, rinsed a second time in the same buffer, and dried. The pre-treated surface modified ABM particles were then incubated with P-15 dissolved in the same buffer as used during the pre-treatment step to coat the particles with P-15 peptide. Following the P-15 coating step, the ABM particles were washed repeatedly with the corresponding buffer solution. The amount of bound P-15 was determined using an ELISA test method. The different runs represent different preparations of the same ABM source.

[2] = as above; format: physicochemical; conditions: Hepes buffer pH 7.2, Porcine Cancellous Run #1
Protocol: as §1

[3] = P-15 bound on final washed ABM particles, effect of pretreatment and freezing/drying technique; format: physicochemical
Protocol: Step 1: PRETREATMENT—ABM is pretreated in a Hypertonic (˜460 mM NaCl) HEPES buffer, pH 7.2, at a 10:1 ratio (ml solution to g ABM) for 24 hours. This solution is decanted off after 24 hours. This wash is repeated with fresh solution for 1 hour or until there is no pH change upon exposure to fresh solution. The final wash solution is decanted and the ABM is vacuum dried. The pretreatment step is performed with agitation of some kind (roller, rotation, etc.).
Step 2: COATING—A P-15 coating buffer (concentration depends on final desired P-15 coated on ABM) is made using hypertonic HEPES, pH 7.2. Pretreated ABM is coated using a 2:1 ratio (mL solution to g ABM) for 24 hours. This step is performed statically, with no agitation.
Step 3: WASHING—After the 24 hour coating step, the solution is removed by a rapid vacuum filtration process. The coated ABM is washed 6-12 times in a 10:1 ratio of solution to ABM using hypertonic HEPES buffer, pH 7.2. Vacuum filtration is performed between each wash to remove the solution. After the final wash, the washed ABM is then vacuum dried overnight.
ABM particles are produced as described in step 1 of Example 1, where step 1 further includes freezing and then drying the ABM particles subjected to hypertonic buffer.
Paired samples of pretreated ABM particles were freeze-dried (F/D) by two different methods, and a third sample was simply air dried (without any freezing). One sample was placed on a controlled ambient temperature F/D shelf and a vacuum was immediately pulled to initiate rapid evaporative freezing (FD-EC). The second sample was placed on an ambient F/D shelf and slowly frozen by ramped freezing (˜1-2° C. per minute). Once the sample was frozen the vacuum was initiated; this process is considered standard freeze-drying. The F/D process was used for both (a) the pretreatment step 1 and the washing (post-coating) step 3. The third samples was not frozen; the water was removed from the sample by air-drying at both drying steps. The following table indicates the amount of bound P15 on the final washed product. Table 4 indicates the amount of bound P-15 on the final washed ABM particles.
Paired samples of pretreated ABM particles were F/D by two different methods. One sample was placed on a controlled ambient temperature F/D shelf and a vacuum was immediately pulled to initiate rapid evaporative freezing. The second sample was placed on an uncooled shelf and a vacuum was immediately pulled to initiate evaporative cooling (vacuum oven drying). It should be noted that the rate of cooling is slower for this process due to the shelf temperature and the strength of vacuum. The F/D process was used for both (a) the pretreatment step 1 and the washing (post-coating) step 3. Table 5 indicates the amount of bound P-15 on the final washed ABM particles.
Four paired samples of pretreated ABM particles were F/D by two methods, alternately performed at the two separate drying steps. Two samples were F/D by vacuum oven drying after the pretreatment step and then dried by either the vacuum oven drying process or by FD-EC (placed on a controlled ambient temperature F/D shelf and a vacuum was immediately pulled to initiate rapid evaporative freezing) method after the P-15 coating step. The other two samples were dried by FD-EC after the pretreatment step and then dried by either the vacuum oven drying process or by FD-EC method after the P-15 coating Table 6 table indicates the amount of bound P-15 on the final washed ABM particles.
Paired samples of pretreated ABM particles were F/D by two different methods. One sample was rapidly frozen using a blast-freezer. The frozen sample was placed on a cold F/D shelf and a vacuum was immediately pulled. The second samples was placed on an uncooled shelf and a vacuum was immediately pulled to initiate evaporative cooling. The F/D process was used for both (a) the pretreatment step 1 and the washing (post-coating) step 3. […]

With “GTPGPQGIAGQRGVV [P-15, cell adhesion (collagen mimetic) peptide coated onto ABM particles]” the “P-15 Concentration Bound to ABM Particles” value (“P-15 Concentration Bound” below) ([1]; Hypertonic Solution (2.7%saline), Bovine Cancellous Run #1) was 149 ng-P-15/g-ABM, the “P-15 Concentration Bound” value ([1]; Hypertonic Solution (2.7%saline), Bovine Cancellous Run #2) was 1024 ng-P-15/g-ABM and the “P-15 Concentration Bound” value ([1]; Hypertonic Solution (2.7%saline), Bovine Cortical Run #1) was 153 ng ng-P-15/g-ABM. The “P-15 Concentration Bound” value ([1]; Hypertonic Solution (2.7%saline), Bovine Cortical Run #2) was 105 ng-P-15/g-ABM, the “P-15 Concentration Bound” value ([1]; Hypotonic Solution (0% saline), Bovine Cancellous Run #1) was 68 ng-P-15/g-ABM and the “P-15 Concentration Bound” value ([1]; Hypotonic Solution (0% saline), Bovine Cancellous Run #2) was 651 ng-P-15/g-ABM. The “P-15 Concentration Bound” value ([1]; Hypotonic Solution (0% saline), Bovine Cortical Run #1) was 105 ng ng-P-15/g-ABM, the “P-15 Concentration Bound” value ([1]; Hypotonic Solution (0% saline), Bovine Cortical Run #2) was 64 ng-P-15/g-ABM and the “P-15 Concentration Bound” value ([1]; Isotonic Solution (0.9% saline), Bovine Cancellous Run #1) was 129 ng-P-15/g-ABM. The “P-15 Concentration Bound” value ([1]; Isotonic Solution (0.9% saline), Bovine Cancellous Run #2) was 611 ng-P-15/g-ABM, the “P-15 Concentration Bound” value ([1]; Isotonic Solution (0.9% saline), Bovine Cortical Run #1) was 116 ng ng-P-15/g-ABM and the “P-15 Concentration Bound” value ([1]; Isotonic Solution (0.9% saline), Bovine Cortical Run #2) was 66 ng-P-15/g-ABM. For the same sequence, the “P-15 Concentration Bound” value ([2]; Hypertonic Solution (2.7%saline)) was 376 ng ng-P-15/g-ABM, the “P-15 Concentration Bound” value ([2]; Hypotonic Solution (0% saline)) was 231 ng ng-P-15/g-ABM and the “P-15 Concentration Bound” value ([2]; Isotonic Solution (0.9% saline)) was 283 ng ng-P-15/g-ABM. The “P-15 ng/g ABM” value ([3]; Table 4, Air drying at both drying steps, no freezing) was 74 ng/g ABM, the “P-15 ng/g ABM” value ([3]; Table 4, Rapid freeze in freeze-dryer at pretreatment and post-coating steps) was 1521 ng/g ABM and the “P-15 ng/g ABM” value ([3]; Table 4, Slow freeze in freeze-dryer at pretreatment and post-coating steps) was 366 ng/g ABM. The “P-15 ng/g ABM” value ([3]; Table 5, Intermediate freeze in vacuum oven) was 308 ng/g ABM, the “P-15 ng/g ABM” value ([3]; Table 5, Rapid freeze in freeze-dryer) was 4201 ng/g ABM and the “P-15 ng/g ABM” value ([3]; Table 6, Pretreatment Step FD-EC, P-15 Coating Step FD-EC) was 351 ng/g ABM. For the same sequence, the “P-15 ng/g ABM” value ([3]; Table 6, Pretreatment Step FD-EC, P-15 Coating Step Vacuum oven) was 261 ng/g ABM, the “P-15 ng/g ABM” value ([3]; Table 6, Pretreatment Step Vacuum oven, P-15 Coating Step FD-EC) was 77 ng/g ABM and the “P-15 ng/g ABM” value ([3]; Table 6, Pretreatment Step Vacuum oven, P-15 Coating Step Vacuum oven) was 72 ng/g ABM. The “P-15 ng/g ABM” value ([3]; Table 7, Blast-freeze followed by standard freeze-dryer) was 260 ng/g ABM and the “P-15 ng/g ABM” value ([3]; Table 7, Intermediate freeze in vacuum oven) was 80 ng/g ABM.
